Test results published in patent US20230313203A1.
Where “and” joins values, the source holds several entries; their conditions need not be identical. Equal entries are not always repeated. Where two headings read alike, the source gives them in different places.

What was measured:
Experiment in all cases: filter
[1] = molecular target: SARS-CoV-2 spike S1 (Wuhan), His-tagged (SARS-CoV-2) (UniProt P0DTC2)
[2] = molecular target: SARS-CoV-2 spike receptor binding domain (Wuhan) (SARS-CoV-2) (UniProt P0DTC2)
[3] = molecular target: SARS-CoV-2 spike S1 (Wuhan), untagged (SARS-CoV-2) (UniProt P0DTC2)
[4] = molecular target: SARS-CoV-1 spike S1 (SARS-CoV-1) (UniProt P59594)
[5] = first 20 nt DNA, rest FANA (T in random region is faU)
[6] = first 20 nt DNA, rest FANA (SEQ ID NO 17)
[7] = first 20 nt DNA, rest FANA (SEQ ID NO 1)
[8] = first 20 nt DNA, rest FANA (SEQ ID NO 3)

For “AAAAGGTAGTGCTGAATTCGATTCTCGATTGATGGCATAAAAAGCATAGAATCGCAAGCAUUCGCUAUCCAGUUGGCCU [FANA-R8-7]”, the Kd [1, 5] was 31.2 nM and the Kd [2, 5] was 62.8 nM.
“AAAAGGTAGTGCTGAATTCGCGAGCCCGCAUGAAAAGGGGAGAUAAAAAAUAUCUGUCGAUUCGCUAUCCAGUUGGCCU [FANA-R8-9]” was tested, and the Kd [3] was 29.6 nM, the Kd [4] was 259 nM and the Kd [1] was 14.7 nM. For the same sequence, the Kd [2] was 23.5 nM and 19.6 nM.
Work on “AAAAGGTAGTGCTGAATTCGCGAGCCCGCAUGAAAAGGGGAGAUAUGCAAUAUCUGUCGAUUCGCUAUCCAGUUGGCCU [FANA-R8-22]” yielded a Kd [1, 6] of 13.3 nM and a Kd [2, 6] of 21.3 nM.
In the case of “AAAAGGTAGTGCTGAATTCGGGAGCTCGAACAGATGGGATAAAAAGCATAGCTCACCAATUUCGCUAUCCAGUUGGCCU [FANA-R8-15]”, the Kd [1, 5] is reported as 27.7 nM and the Kd [2, 5] is reported as 43.3 nM.
In the case of “AAAAGGTAGTGCTGAATTCGGTCGCGATTAACATTAAACCGCATAAAAAGGGTGGCCGGAUUCGCUAUCCAGUUGGCCU [FANA-R8-3]”, the Kd [1, 5] is reported as 46.4 nM and the Kd [2, 5] is reported as 68.1 nM.
For “AAAAGGTAGTGCTGAATTCGNNNNNNNNNNNNNNNNNNNNNNNNNNNNNNNNNNNNNNNNUUCGCUAUCCAGUUGGCCU [FANA-ST]”, the Kd ([2]; first 20 nt DNA, rest 2'-fluoro-arabino (FANA)) was 1700 nM.
Sequence “AAAAGGTAGTGCTGAATTCGUCGAACUAAACCGAAUUGAUGGCAUAAAAAGCAUGUUUAGUUCGCUAUCCAGUUGGCCU [FANA-R8-5]” has a Kd [1, 7] of 16.6 nM and a Kd [2, 7] of 26.4 nM.
“AAAAGGTAGTGCTGAATTCGUCGAACUAAUCCGAAUUGAUGGCAUAAAAAGCAUGUUUAGUUCGCUAUCCAGUUGGCCU [FANA-R8-17]” was tested, and the Kd [1, 8] was 19.1 nM and the Kd [2, 8] was 29.5 nM.
